Data on three molecules can be found in patent US20190300618A1 (Merck Sharp & Dohme, published 2019).

The target of one assay is T1, R10A.
T1 construct: also called hCD27 R10A
T1 receptor: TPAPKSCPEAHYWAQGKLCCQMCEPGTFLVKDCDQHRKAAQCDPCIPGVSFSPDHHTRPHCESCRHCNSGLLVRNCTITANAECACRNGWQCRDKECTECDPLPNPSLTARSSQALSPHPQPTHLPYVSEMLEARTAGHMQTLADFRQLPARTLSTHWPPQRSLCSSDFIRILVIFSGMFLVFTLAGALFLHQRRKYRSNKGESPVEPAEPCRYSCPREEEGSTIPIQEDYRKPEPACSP
The experiment in a line: flow cytometry, CHO-K1; sub-column 1 of 2.

The next assay addresses T2, H36A.
T2 construct: also called hCD27 H36A
T2 receptor: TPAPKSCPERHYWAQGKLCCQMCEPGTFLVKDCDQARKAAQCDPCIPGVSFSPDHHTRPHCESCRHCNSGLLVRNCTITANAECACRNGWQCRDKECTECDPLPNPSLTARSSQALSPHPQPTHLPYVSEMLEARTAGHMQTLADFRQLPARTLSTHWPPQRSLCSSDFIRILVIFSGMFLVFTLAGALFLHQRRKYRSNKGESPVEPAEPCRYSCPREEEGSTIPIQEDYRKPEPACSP
Put plainly: flow cytometry, CHO-K1; sub-column 1 of 2.

In a further assay the target is T3, D43A.
T3 construct: also called hCD27 D43A
T3 receptor: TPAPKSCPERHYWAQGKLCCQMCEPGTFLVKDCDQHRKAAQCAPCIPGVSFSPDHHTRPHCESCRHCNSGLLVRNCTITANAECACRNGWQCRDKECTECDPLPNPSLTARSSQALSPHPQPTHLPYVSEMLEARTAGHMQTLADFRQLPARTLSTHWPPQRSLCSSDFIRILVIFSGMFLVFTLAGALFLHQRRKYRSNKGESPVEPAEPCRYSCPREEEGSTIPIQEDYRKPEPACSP
The experiment in a line: flow cytometry, CHO-K1; sub-column 1 of 2.

A further assay concerns the target T4, W13A.
T4 construct: also called hCD27 W13A
T4 receptor: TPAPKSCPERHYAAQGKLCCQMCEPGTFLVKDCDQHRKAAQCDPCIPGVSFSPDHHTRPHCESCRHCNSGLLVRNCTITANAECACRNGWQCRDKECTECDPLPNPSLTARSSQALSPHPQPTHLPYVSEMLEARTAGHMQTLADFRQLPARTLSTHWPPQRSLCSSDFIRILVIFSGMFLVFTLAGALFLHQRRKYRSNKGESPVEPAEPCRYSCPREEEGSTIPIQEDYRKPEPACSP
The experiment in a line: flow cytometry, CHO-K1; sub-column 2 of 2.

The target of the next assay is T5, G16A.
T5 construct: also called hCD27 G16A
T5 receptor: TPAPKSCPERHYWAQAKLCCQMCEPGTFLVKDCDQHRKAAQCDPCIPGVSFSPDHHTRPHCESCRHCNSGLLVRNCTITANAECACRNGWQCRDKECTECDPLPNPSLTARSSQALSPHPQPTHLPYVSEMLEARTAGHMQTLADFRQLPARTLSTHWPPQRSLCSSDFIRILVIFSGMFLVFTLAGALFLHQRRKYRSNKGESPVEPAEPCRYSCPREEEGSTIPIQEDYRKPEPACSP
Put plainly: flow cytometry, CHO-K1; sub-column 2 of 2.

The next assay addresses T6, K17A.
T6 construct: also called hCD27 K17A
T6 receptor: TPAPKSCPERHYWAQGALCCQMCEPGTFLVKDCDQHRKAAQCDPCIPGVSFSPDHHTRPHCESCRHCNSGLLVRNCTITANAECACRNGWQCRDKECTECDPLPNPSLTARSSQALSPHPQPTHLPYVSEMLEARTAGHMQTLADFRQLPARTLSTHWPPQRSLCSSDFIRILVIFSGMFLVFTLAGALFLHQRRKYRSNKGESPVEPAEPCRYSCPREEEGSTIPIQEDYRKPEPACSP
Put plainly: flow cytometry, CHO-K1; sub-column 2 of 2.

The target in the next assay is T7, K31A.
T7 construct: also called hCD27 K31A
T7 receptor: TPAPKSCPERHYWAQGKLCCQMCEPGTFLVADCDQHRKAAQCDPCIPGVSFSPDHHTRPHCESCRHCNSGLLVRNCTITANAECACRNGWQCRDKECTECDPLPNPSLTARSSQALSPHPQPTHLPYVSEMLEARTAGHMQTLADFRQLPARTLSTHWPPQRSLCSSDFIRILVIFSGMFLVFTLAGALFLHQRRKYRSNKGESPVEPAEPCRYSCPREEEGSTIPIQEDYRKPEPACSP
The experiment in a line: flow cytometry, CHO-K1; sub-column 2 of 2.

The target of a further assay is T8, V49A.
T8 construct: also called hCD27 V49A
T8 receptor: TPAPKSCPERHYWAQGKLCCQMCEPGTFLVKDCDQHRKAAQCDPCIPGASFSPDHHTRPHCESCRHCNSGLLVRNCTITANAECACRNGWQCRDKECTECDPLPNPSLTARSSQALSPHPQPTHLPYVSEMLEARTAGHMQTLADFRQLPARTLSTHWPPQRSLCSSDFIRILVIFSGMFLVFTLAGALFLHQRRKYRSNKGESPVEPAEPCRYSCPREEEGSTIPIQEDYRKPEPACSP
Put plainly: flow cytometry, CHO-K1; sub-column 2 of 2.

A further assay addresses T9, R87A.
T9 construct: also called hCD27 R87A
T9 receptor: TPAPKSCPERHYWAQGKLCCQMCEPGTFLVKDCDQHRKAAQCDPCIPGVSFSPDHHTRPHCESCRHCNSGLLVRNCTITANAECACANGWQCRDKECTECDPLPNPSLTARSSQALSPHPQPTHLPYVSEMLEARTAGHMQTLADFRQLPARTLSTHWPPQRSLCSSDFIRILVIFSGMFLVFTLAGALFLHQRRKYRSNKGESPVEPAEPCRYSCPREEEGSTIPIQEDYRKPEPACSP
The experiment in a line: flow cytometry, CHO-K1; sub-column 2 of 2.

For a further assay, the target named is T10, W90A.
T10 construct: also called hCD27 W90A
T10 receptor: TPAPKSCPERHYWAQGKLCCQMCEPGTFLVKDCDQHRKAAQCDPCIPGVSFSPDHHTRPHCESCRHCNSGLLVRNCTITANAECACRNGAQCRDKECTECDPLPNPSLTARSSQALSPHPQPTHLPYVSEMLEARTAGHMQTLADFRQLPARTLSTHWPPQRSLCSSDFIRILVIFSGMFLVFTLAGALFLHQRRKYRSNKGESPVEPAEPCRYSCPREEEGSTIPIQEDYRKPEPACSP
The experiment in a line: flow cytometry, CHO-K1; sub-column 2 of 2.

Regarding 1A4 (mouse IgG1) (antibody), the % of WT hCD27 binding (geo mean FITC) with R10A turned out to be 107%; with H36A, 111%; with D43A, 195%; in the assay with W13A, 93.4%; with G16A it was 97.3%; in the assay with K17A it was 6.8%. The % of WT hCD27 binding (geo mean FITC) with K31A came out at 138%; in the assay with V49A it was 97%; with R87A, 108%; in the assay with W90A, 96.4%.
Regarding 9F4 (mouse IgG2a) (antibody), the % of WT hCD27 binding (geo mean FITC) in the assay with R10A is 104%; in the assay with H36A, 88.5%; with D43A it was 201%; in the assay with W13A, 86.5%; with G16A, 102%; with K17A, 106%. Besides, the % of WT hCD27 binding (geo mean FITC) in the assay with K31A stood at 133%; with V49A, 92.1%; in the assay with R87A it was 98.8%; with W90A, 85.7%.

B1: Antibody hCD27.131A (mouse parental 131A) (antibody, V domains shown)
VH: QIQLVQSGPELKKPGETVKISCKASGYTFTNYGMNWVKQAPGKGLKWMGWINTNTGEPTYAEEFKGRFAFSLETSATTAYLQINNLKNEDTATYFCAREGDAMDYWGQGTSVTVSS
VL: QIVLTQSPAIMSASPGEKVTMTCSASSSVSYMHWYQQKSGTSPKRWIYDTSKLASGVPARFSGSGSGTSYSLTISSMEAEDAATYYCQQWNSYPFTFGSGTKLEIK
notes: mouse IgG1; also called mouse hCD27.131A
Turning to B1, the “% of WT hCD27 binding (geo mean FITC)” value is 103% with R10A; 54.1% in the assay with H36A; 194% with D43A; 88.6% in the assay with W13A; 108% with G16A; 126% with K17A. Besides, the “% of WT hCD27 binding (geo mean FITC)” value amounted to 134% with K31A, 99.8% with V49A, 111% with R87A and 102% with W90A.
